# Measurements taken from patent US20230165981A1, “[161Tb]-BASED RADIOPEPTIDES” (priority 2021, published 2023).
# Where “and” joins values, the source holds several entries; their conditions need not be identical. Equal entries are not always repeated. Where two headings read alike, the source gives them in different places. Positions of bridges follow the written chain, without caps; N, C: chain ends. Non-standard residues stand in square brackets, D forms with d. Residues, ends and D or L forms follow the SMILES beside them. *: point of attachment. DOTA = O=C(O)CN1CCN(CC(=O)O)CCN(CC(=O)*)CCN(CC(=O)O)CC1; dPhe(4-NHCONH2) = NC(=O)Nc1ccc(C[C@@H](N)C(=O)O)cc1; Phe(4-Cl) = N[C@@H](Cc1ccc(Cl)cc1)C(=O)O
# How the values were obtained:
# [1] = Biodistribution: optimum injected molar amount; settings: female, mouse, in vivo, iv, total radioactivity, 2 h p.i.
# [2] = n-octanol/PBS distribution coefficient (logD), shake-flask method; format: physicochemical; settings: n-octanol/PBS pH 7.4
# Experimental: An aliquot of the radiolabeled peptide (0.5 MBq, 25 µL) was added to a mixture of 1475 µL PBS pH 7.4 and 1500 µL n-octanol. The respective tubes were vortexed for 60 sec and centrifuged for 6 min at 2500 rpm followed by the measurement of the activity concentration in a defined volume of each layer using a γ-counter (Perkin Elmer, Wallac Wizard 1480). The logD values were calculated as the logarithm of the ratio of counts per minute (cpm) measured in the n-octanol phase relative to the cpm measured in the PBS pH 7.4 phase. The experiments were performed three times with five replicates for each radiopeptide and the logD value was expressed as the average ± standard deviation (SD) of the values obtained in each experiment. […] A p value <0.05 was considered statistically significant.
# AR42J tumors = assay: Preclinical therapy study in AR42J tumor-bearing mice; format: in vivo
# [3] = Assessment of early side effects in therapy mice; settings: endpoint of therapy
# Experimental: Early side effects were assessed based on the RBW of each mouse which was monitored every second day. When an endpoint was reached or at the end of the study (after 49 days), relevant organs and tissues were collected, weighed and put into relation to the brain mass and body weight of the respective mouse. This allowed comparison of organ-to-brain and organ-to-body mass weight ratios. In addition, blood plasma parameters from blood collected immediately after euthanasia were measured.
# RBW, organ mass and mass ratios at the endpoint: The RBW was monitored every second day. Mice were euthanized when a predefined endpoint criterion was reached or when the study was terminated at Day 49. RBWs, organ masses, organ mass ratios (kidney-to-brain, liver-to-brain and spleen-to-brain) and organ mass to body weight ratios (kidney-to-body mass, liver-to-body mass and spleen-to-body mass) were analyzed for significance using a one-way ANOVA test with a Tukey’s multiple comparisons post-test. A p-value of <0.05 was considered as statistically significant.
# Blood plasma chemistry: Immediately before euthanasia of the mice that reached the endpoint, blood was sampled from the retrobulbar vein. The values of creatinine (CRE), blood urea nitrogen (BUN), alkaline phosphatase (ALP), total bilirubin (TBIL) and albumin (ALB) were determined in the plasma after centrifugation of the blood using a dry chemistry analyzer (DRI-CHEM 4000i, FUJIFILM, Japan). The average blood plasma parameters of each group were analyzed for significance using a one-way ANOVA test with a Tukey’s multiple comparisons post-test. A p-value of <0.05 was considered as statistically significant.
# AR42J tumor-bearing mice = assay: Biodistribution: optimum injected molar amount; settings: 2 h p.i.
# in vivo = settings: female, athymic nude (CD-1 Foxn-1nu), mouse, iv, 1 nmol/mouse, total radioactivity
# Experimental: Five-week-old female, athymic nude mice (CD-1 Foxn-⅟nu) were obtained from Charles River Laboratories (Sulzfeld, Germany). Mice were subcutaneously inoculated with AR42J tumor cells (5 × 10^6 cells in 100 µL PBS) for SPECT/CT imaging, biodistribution and therapy studies. The SPECT/CT and biodistribution studies were performed 10-14 days after tumor cell inoculation when the tumor size reached a volume of ~250 mm^3.
# The mice were sacrificed at 2 h and 24 h post injection (p.i.). Selected tissues and organs were collected, weighed, and the accumulated activity was counted in a γ-counter. The decay-corrected data were listed as the percentage of the injected activity per gram of tissue mass (% IA/g). The data were analyzed for significance using a two-way ANOVA with Tukey’s multiple comparison post-tests. A p-value of <0.05 was considered statistically significant.
structure (smiles),measurement,setting,value
"C[C@@H](O)[C@@H]1NC(=O)[C@H](CCCCN)NC(=O)[C@@H](Cc2c[nH]c3ccccc23)NC(=O)[C@H](Cc2ccc(O)cc2)NC(=O)[C@@H](NC(=O)[C@@H](Cc2ccccc2)NC(=O)CN2CCN(CC(=O)O)CCN(CC(=O)O)CCN(CC(=O)O)CC2)CSSC[C@@H](C(=O)N[C@H](CO)[C@@H](C)O)NC1=O [[^161Tb]Tb-DOTATOC, metal not drawn]",tissue uptake at 2 h,"[1]; CD-1 Foxn-1nu athymic nude, 0.04 nmol/mouse, Biodistribution: Adrenals, 0.040 nmol/mouse",0.65 ± 0.08 %ID/g
same,tissue uptake at 2 h,"[1]; CD-1 Foxn-1nu athymic nude, 0.04 nmol/mouse, Biodistribution: Kidneys, 0.040 nmol/mouse",9 ± 2 %ID/g
same,tissue uptake at 2 h,"[1]; CD-1 Foxn-1nu athymic nude, 0.2 nmol/mouse, Biodistribution: Heart, 0.20 nmol/mouse",< 0.1 %ID/g
same,tissue uptake at 2 h,"[1]; athymic nude (CD-1 Foxn-1nu), 0.04 nmol/mouse, Biodistribution: AR42J Tumor, 0.040 nmol/mouse",16 ± 4 %ID/g
same,tissue uptake at 2 h,"[1]; athymic nude (CD-1 Foxn-1nu), 0.04 nmol/mouse, Biodistribution: Blood, 0.040 nmol/mouse",< 0.1 %ID/g
same,tissue uptake at 2 h,"[1]; athymic nude (CD-1 Foxn-1nu), 0.04 nmol/mouse, Biodistribution: Heart, 0.040 nmol/mouse",< 0.1 %ID/g
same,tissue uptake at 2 h,"[1]; athymic nude (CD-1 Foxn-1nu), 0.04 nmol/mouse, Biodistribution: Muscle, 0.040 nmol/mouse",< 0.1 %ID/g
same,tissue uptake at 2 h,"[1]; athymic nude (CD-1 Foxn-1nu), 0.2 nmol/mouse, Biodistribution: AR42J Tumor, 0.20 nmol/mouse",14 ± 1 %ID/g
same,tissue uptake at 2 h,"[1]; athymic nude (CD-1 Foxn-1nu), 0.2 nmol/mouse, Biodistribution: Blood, 0.20 nmol/mouse",< 0.1 %ID/g
same,tissue uptake at 2 h,"[1]; athymic nude (CD-1 Foxn-1nu), 0.2 nmol/mouse, Biodistribution: Muscle, 0.20 nmol/mouse",< 0.1 %ID/g
same,tissue uptake at 2 h,"[1]; athymic nude (CD-1 Foxn-1nu), 1 nmol/mouse, Biodistribution: AR42J Tumor, 1.0 nmol/mouse",~8 %ID/g
same,tissue uptake at 2 h,"[1]; athymic nude (CD-1 Foxn-1nu), kidney uptake, irrespective of the applied setting (0.04-1.0 nmol)",~10 %ID/g
C[C@@H](O)[C@@H]1NC(=O)[C@H](CCCCN)NC(=O)[C@@H](Cc2c[nH]c3ccccc23)NC(=O)[C@H](Cc2ccc(O)cc2)NC(=O)[C@@H](NC(=O)[C@@H](Cc2ccccc2)NC(=O)CN2CCN(CC(=O)O)CCN(CC(=O)O)CCN(CC(=O)O)CC2)CSSC[C@@H](C(=O)N[C@H](CO)[C@@H](C)O)NC1=O [[^177Lu]Lu-DOTATOC] [metal not drawn],LogD,[2],-3.1 ± 0.2
same,Median survival,"AR42J tumors; 2 x 10 MBq, 0.2 nmol",19.5 days
same,tumor growth delay,"AR42J tumors; 2 x 10 MBq, 0.2 nmol, Day 0 and 7",6.0 ± 4.4 days
same,Time frame of euthanasia,"AR42J tumors; 2 x 10 MBq, 0.2 nmol, end of study = 49 days",12 to 22 days
same,tumor doubling time,AR42J tumors; regrowth phase,3.4 ± 0.8 days
same,ALB (albumin),[3],24 ± 5 g/L
same,ALP (alkaline phosphatase),[3],77 ± 8 U/L
same,BUN (blood urea nitrogen),[3],6.3 ± 0.9 mmol/L
same,CRE (plasma creatinine),[3],<18 (n=5) µmol/L
same,TBIL (total bilirubin),[3],< 3 µmol/L and 4 ± 1 µmol/L
same,Biodistribution: AR42J Tumor,AR42J tumor-bearing mice; 0.040 nmol/mouse,~ 17 % IA/g
same,Biodistribution: Blood,AR42J tumor-bearing mice; 0.040 nmol/mouse,≤0.10 % IA/g
same,Biodistribution: Heart,AR42J tumor-bearing mice; 0.040 nmol/mouse,≤0.10 % IA/g
same,Biodistribution: Kidneys,AR42J tumor-bearing mice; 0.040 nmol/mouse,10 ± 2 % IA/g
same,Biodistribution: Muscle,AR42J tumor-bearing mice; 0.040 nmol/mouse,≤0.10 % IA/g
same,Tu-to-adr (tumor-to-adrenals),AR42J tumor-bearing mice; 0.040 nmol/mouse,28 ± 2
same,Tu-to-blood,AR42J tumor-bearing mice; 0.040 nmol/mouse,213 ± 41
same,Tu-to-kidney,AR42J tumor-bearing mice; 0.040 nmol/mouse,1.9 ± 0.3
same,Tu-to-liver,AR42J tumor-bearing mice; 0.040 nmol/mouse,100 ± 8
same,Tu-to-lung (tumor-to-lungs),AR42J tumor-bearing mice; 0.040 nmol/mouse,17 ± 3
same,Tu-to-panc (tumor-to-pancreas),AR42J tumor-bearing mice; 0.040 nmol/mouse,9.7 ± 1.8
same,Tu-to-sto (tumor-to-stomach),AR42J tumor-bearing mice; 0.040 nmol/mouse,11 ± 2
same,Biodistribution: Blood,AR42J tumor-bearing mice; 0.20 nmol/mouse,<0.10 % IA/g
same,Biodistribution: Femur,AR42J tumor-bearing mice; 0.20 nmol/mouse,0.10 ± 0.01 % IA/g
same,Biodistribution: Heart,AR42J tumor-bearing mice; 0.20 nmol/mouse,<0.10 % IA/g
same,Biodistribution: Kidneys,AR42J tumor-bearing mice; 0.20 nmol/mouse,10 ± 3 % IA/g
same,Biodistribution: Muscle,AR42J tumor-bearing mice; 0.20 nmol/mouse,<0.10 % IA/g
same,Tu-to-adr (tumor-to-adrenals),AR42J tumor-bearing mice; 0.20 nmol/mouse,47 ± 29
same,Tu-to-blood,AR42J tumor-bearing mice; 0.20 nmol/mouse,235 ± 60
same,Tu-to-kidney,AR42J tumor-bearing mice; 0.20 nmol/mouse,1.9 ± 0.4
same,Tu-to-liver,AR42J tumor-bearing mice; 0.20 nmol/mouse,118 ± 24
same,Tu-to-lung (tumor-to-lungs),AR42J tumor-bearing mice; 0.20 nmol/mouse,27 ± 6
same,Tu-to-panc (tumor-to-pancreas),AR42J tumor-bearing mice; 0.20 nmol/mouse,10 ± 2
same,Tu-to-sto (tumor-to-stomach),AR42J tumor-bearing mice; 0.20 nmol/mouse,15 ± 4
same,Biodistribution: AR42J Tumor,AR42J tumor-bearing mice; 1.0 nmol/mouse,8.9 ± 1.5 % IA/g
same,Biodistribution: Adrenals,AR42J tumor-bearing mice; 1.0 nmol/mouse,0.28 ± 0.08 % IA/g
same,Biodistribution: Blood,AR42J tumor-bearing mice; 1.0 nmol/mouse,<0.10 % IA/g
same,Biodistribution: Femur,AR42J tumor-bearing mice; 1.0 nmol/mouse,<0.10 % IA/g
same,Biodistribution: Heart,AR42J tumor-bearing mice; 1.0 nmol/mouse,<0.10 % IA/g
same,Biodistribution: Intestines,AR42J tumor-bearing mice; 1.0 nmol/mouse,0.20 ± 0.05 % IA/g
same,Biodistribution: Kidneys,AR42J tumor-bearing mice; 1.0 nmol/mouse,11 ± 1 % IA/g
same,Biodistribution: Liver,AR42J tumor-bearing mice; 1.0 nmol/mouse,0.26 ± 0.07 % IA/g
same,Biodistribution: Lung,AR42J tumor-bearing mice; 1.0 nmol/mouse,0.37 ± 0.06 % IA/g
same,Biodistribution: Muscle,AR42J tumor-bearing mice; 1.0 nmol/mouse,<0.10 % IA/g
same,Biodistribution: Pancreas,AR42J tumor-bearing mice; 1.0 nmol/mouse,0.80 ± 0.13 % IA/g
same,Biodistribution: Spleen,AR42J tumor-bearing mice; 1.0 nmol/mouse,0.15 ± 0.03 % IA/g
same,Biodistribution: Stomach,AR42J tumor-bearing mice; 1.0 nmol/mouse,0.65 ± 0.11 % IA/g
same,Tu-to-adr (tumor-to-adrenals),AR42J tumor-bearing mice; 1.0 nmol/mouse,29 ± 3
same,Tu-to-lung (tumor-to-lungs),AR42J tumor-bearing mice; 1.0 nmol/mouse,25 ± 3
same,Tu-to-panc (tumor-to-pancreas),AR42J tumor-bearing mice; 1.0 nmol/mouse,13 ± 1
same,Tu-to-sto (tumor-to-stomach),AR42J tumor-bearing mice; 1.0 nmol/mouse,15 ± 5
same,kidney uptake,AR42J tumor-bearing mice; irrespective of the applied setting (0.04-1.0 nmol),~ 10%
C[C@@H](O)[C@@H]1NC(=O)[C@H](CCCCN)NC(=O)[C@@H](Cc2ccc(NC(N)=O)cc2)NC(=O)[C@H](Cc2ccc(O)cc2)NC(=O)[C@H](NC(=O)[C@H](Cc2ccc(Cl)cc2)NC(=O)CN2CCN(CC(=O)O)CCN(CC(=O)O)CCN(CC(=O)O)CC2)CSSC[C@@H](C(=O)N[C@H](Cc2ccc(O)cc2)C(N)=O)NC1=O [metal not drawn] ({DOTA}-[Phe(4-Cl)][dC]Y[dPhe(4-NHCONH2)]KTC[dY]-NH2; disulfide 2-7),LogD,[2]; read-out: LogD,-2.5 ± 0.1
same,ALB (albumin),[3],23 ± 1 g/L
same,ALP (alkaline phosphatase),[3],66 ± 5 U/L
same,BUN (blood urea nitrogen),[3],8.2 ± 1.9 mmol/L and 8.2 ± 1.8 mmol/L
same,CRE (plasma creatinine),[3],<18 (n=5) µmol/L and 19 (n=1) µmol/L
same,TBIL (total bilirubin),[3],<3 (n=4) µmol/L and 4 ± 1 (n=2) µmol/L
same,tissue uptake at 24 h,in vivo; intestines,0.14 ± 0.03 %ID/g
same,tissue uptake at 2 h,in vivo; kidneys,11 ± 1 %ID/g
same,Tu-to-adr (tumor-to-adrenals),AR42J tumor-bearing mice; 0.040 nmol/mouse,11 ±4
same,Tu-to-blood,AR42J tumor-bearing mice; 0.040 nmol/mouse,289 ± 45
same,Tu-to-kidney,AR42J tumor-bearing mice; 0.040 nmol/mouse,4.3 ± 1.2
same,Tu-to-adr (tumor-to-adrenals),AR42J tumor-bearing mice; 0.20 nmol/mouse,34 ± 9.2
same,Tu-to-blood,AR42J tumor-bearing mice; 0.20 nmol/mouse,492 ± 102
same,Tu-to-kidney,AR42J tumor-bearing mice; 0.20 nmol/mouse,4.3 ± 0.4
same,Tu-to-liver,AR42J tumor-bearing mice; 0.20 nmol/mouse,90 ± 11
same,Biodistribution: Blood,AR42J tumor-bearing mice; 1.0 nmol/mouse,≤0.10 % IA/g
same,Biodistribution: Heart,AR42J tumor-bearing mice; 1.0 nmol/mouse,≤0.10 % IA/g
same,Biodistribution: Muscle,AR42J tumor-bearing mice; 1.0 nmol/mouse,≤0.10 % IA/g
same,Tu-to-adr (tumor-to-adrenals),AR42J tumor-bearing mice; 1.0 nmol/mouse,36 ± 6
